# Data reported in publication PMC7803729 (Nature Communications, 2021).
# B1: CT-P59 monoclonal antibody, full-length fully human IgG (antibody, V domains shown)
# VH: QITLKESGPTLVKPTQTLTLTCSFSGFSLSTSGVGVGWIRQPPGKALEWLALIDWDDNKYHTTSLKTRLTISKDTSKNQVVLTMTNMDPVDTATYYCARIPGFLRYRNRYYYYGMDVWGQGTTVTVSS
# VL: ELVLTQPPSVSAAPGQKVTISCSGSSSNIGNNYVSWYQQLPGTAPKLLIYDNNKRPSGIPDRFSGSKSGTSATLGITGLQTGDEADYYCGTWDSSLSAGVFGGGTELTVL
# Target: SARS-CoV-2 S protein RBD (Arg319-Asn536) with a polyhistidine tag at the C-terminus, manufactured by Celltrion (SARS-CoV-2, Wuhan-Hu-1 (YP_009724390.1), UniProt P0DTC2)
# Assay: SPR
# Conditions: both partners purified
binder,measurement,value
B1,Kd,0.027 nM
